Experimental data taken from patent publication US10562947B2, “Compositions and methods for preventing or treating diseases, conditions or processes characterized by aberrant fibroblast proliferation and extracellular matrix deposition” (MOERAE MATRIX, INC., priority 2011, dated 2020).

Legend:
Test in all cases: Kinase Profiling Assay
Format in all cases: biochemical
Conditions in all cases: 100 μM peptide
[1] = biological target: Abl(h) (Homo sapiens, UniProt P00519)
Summary of the method: (§1)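 First, MK2 inhibitor peptides were applied to a panel of 266 human kinases; then each kinase's activity was measured in duplicate to assess off-target inhibition.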

[2] = biological target: MSSK1(h) (Homo sapiens, UniProt Q9UPE1)
Summary of the method: as §1

[3] = biological target: T1, MST2(h) (Homo sapiens, UniProt Q13188)
T1 sequence (Q13188 1-491): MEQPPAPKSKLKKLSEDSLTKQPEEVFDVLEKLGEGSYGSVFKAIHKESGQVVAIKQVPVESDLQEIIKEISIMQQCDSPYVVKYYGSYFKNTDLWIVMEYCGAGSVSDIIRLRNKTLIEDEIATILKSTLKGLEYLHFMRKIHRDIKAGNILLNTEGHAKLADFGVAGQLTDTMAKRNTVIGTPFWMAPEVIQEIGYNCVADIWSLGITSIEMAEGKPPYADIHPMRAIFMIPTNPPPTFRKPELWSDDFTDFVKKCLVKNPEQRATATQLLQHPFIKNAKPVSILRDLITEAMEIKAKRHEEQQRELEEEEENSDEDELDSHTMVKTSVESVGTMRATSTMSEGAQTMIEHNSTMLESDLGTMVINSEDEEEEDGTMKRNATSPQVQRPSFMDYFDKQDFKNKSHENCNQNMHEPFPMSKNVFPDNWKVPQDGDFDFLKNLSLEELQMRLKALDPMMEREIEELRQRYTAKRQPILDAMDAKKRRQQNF
Summary of the method: as §1

[4] = biological target: T2, NEK11(h) (Homo sapiens, UniProt Q8NG66)
T2 sequence (Q8NG66 1-645): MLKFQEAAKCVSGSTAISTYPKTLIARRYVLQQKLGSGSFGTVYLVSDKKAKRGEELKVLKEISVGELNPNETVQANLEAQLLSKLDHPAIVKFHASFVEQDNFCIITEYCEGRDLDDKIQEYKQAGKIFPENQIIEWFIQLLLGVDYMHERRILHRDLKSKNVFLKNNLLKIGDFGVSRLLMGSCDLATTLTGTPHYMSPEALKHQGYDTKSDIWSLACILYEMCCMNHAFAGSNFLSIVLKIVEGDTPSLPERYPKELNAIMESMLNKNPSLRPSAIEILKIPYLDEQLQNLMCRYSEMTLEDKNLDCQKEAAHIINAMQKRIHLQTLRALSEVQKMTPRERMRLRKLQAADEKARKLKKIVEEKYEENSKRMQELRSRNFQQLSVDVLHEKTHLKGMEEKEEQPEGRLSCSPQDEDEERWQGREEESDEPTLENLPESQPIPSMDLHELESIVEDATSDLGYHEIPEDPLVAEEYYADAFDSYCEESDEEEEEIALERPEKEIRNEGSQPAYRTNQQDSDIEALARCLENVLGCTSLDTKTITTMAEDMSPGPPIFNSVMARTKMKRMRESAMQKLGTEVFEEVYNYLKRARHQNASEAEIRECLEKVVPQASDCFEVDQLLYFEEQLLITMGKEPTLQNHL
Summary of the method: as §1

[5] = biological target: T3, NEK2(h) (Homo sapiens, UniProt P51955)
T3 sequence (P51955 1-445): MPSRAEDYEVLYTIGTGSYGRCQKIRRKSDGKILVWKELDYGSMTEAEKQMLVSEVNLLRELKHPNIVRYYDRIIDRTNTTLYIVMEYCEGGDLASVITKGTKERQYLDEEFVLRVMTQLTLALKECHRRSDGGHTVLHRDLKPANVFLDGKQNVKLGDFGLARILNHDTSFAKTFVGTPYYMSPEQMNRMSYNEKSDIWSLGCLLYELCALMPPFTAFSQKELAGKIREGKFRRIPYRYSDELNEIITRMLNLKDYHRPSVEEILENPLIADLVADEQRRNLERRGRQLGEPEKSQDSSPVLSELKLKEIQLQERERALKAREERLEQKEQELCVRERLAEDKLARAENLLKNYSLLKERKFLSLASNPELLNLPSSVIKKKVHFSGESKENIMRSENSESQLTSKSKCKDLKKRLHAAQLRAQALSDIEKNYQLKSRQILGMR
Summary of the method: as §1

[6] = biological target: T4, PKD2(h) (Homo sapiens, UniProt Q9BZL6)
T4 construct: purchased Millipore (IC50 Profiler Express service)
T4 sequence (Q9BZL6 1-878): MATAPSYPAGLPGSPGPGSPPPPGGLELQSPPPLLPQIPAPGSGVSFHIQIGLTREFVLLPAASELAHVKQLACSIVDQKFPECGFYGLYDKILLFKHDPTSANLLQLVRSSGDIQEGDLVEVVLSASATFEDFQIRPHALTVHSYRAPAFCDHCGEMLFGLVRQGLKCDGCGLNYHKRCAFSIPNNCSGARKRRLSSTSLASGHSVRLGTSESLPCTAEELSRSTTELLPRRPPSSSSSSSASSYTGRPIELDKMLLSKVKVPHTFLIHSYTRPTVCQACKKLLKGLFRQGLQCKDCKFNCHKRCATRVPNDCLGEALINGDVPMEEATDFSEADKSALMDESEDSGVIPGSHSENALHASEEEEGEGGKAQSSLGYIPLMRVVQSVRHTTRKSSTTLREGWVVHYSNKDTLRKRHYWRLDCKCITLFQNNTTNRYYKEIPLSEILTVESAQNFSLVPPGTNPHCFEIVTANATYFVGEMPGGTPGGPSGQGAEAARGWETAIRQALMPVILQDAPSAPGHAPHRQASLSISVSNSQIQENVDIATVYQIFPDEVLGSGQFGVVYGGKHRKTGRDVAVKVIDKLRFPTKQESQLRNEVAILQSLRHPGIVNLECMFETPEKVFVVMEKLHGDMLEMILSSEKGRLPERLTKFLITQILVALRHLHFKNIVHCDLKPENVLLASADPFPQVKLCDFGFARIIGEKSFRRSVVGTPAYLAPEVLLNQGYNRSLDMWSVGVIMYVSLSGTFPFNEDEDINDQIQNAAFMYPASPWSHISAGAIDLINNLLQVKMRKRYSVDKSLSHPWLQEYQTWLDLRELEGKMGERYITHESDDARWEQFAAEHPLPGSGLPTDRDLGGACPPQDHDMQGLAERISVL
Summary of the method: as §1

Sequence of MSSK1(h) (Q9UPE1 whole entry): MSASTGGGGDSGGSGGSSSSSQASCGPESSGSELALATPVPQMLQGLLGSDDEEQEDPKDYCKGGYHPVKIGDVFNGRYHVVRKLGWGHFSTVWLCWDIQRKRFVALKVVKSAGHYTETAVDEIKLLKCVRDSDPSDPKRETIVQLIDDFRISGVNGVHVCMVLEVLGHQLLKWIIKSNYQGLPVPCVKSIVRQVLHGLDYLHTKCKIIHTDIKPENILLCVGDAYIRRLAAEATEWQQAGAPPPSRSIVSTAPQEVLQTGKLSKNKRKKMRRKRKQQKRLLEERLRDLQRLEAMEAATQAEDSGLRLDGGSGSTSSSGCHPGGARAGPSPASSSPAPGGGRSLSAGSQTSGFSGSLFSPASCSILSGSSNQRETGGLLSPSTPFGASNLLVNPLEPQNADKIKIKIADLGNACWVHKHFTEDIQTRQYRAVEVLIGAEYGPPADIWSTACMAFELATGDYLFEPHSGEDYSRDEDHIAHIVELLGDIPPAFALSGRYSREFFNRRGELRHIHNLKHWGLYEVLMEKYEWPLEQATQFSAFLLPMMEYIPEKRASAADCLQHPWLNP
Sequence of Abl(h) (P00519 whole entry): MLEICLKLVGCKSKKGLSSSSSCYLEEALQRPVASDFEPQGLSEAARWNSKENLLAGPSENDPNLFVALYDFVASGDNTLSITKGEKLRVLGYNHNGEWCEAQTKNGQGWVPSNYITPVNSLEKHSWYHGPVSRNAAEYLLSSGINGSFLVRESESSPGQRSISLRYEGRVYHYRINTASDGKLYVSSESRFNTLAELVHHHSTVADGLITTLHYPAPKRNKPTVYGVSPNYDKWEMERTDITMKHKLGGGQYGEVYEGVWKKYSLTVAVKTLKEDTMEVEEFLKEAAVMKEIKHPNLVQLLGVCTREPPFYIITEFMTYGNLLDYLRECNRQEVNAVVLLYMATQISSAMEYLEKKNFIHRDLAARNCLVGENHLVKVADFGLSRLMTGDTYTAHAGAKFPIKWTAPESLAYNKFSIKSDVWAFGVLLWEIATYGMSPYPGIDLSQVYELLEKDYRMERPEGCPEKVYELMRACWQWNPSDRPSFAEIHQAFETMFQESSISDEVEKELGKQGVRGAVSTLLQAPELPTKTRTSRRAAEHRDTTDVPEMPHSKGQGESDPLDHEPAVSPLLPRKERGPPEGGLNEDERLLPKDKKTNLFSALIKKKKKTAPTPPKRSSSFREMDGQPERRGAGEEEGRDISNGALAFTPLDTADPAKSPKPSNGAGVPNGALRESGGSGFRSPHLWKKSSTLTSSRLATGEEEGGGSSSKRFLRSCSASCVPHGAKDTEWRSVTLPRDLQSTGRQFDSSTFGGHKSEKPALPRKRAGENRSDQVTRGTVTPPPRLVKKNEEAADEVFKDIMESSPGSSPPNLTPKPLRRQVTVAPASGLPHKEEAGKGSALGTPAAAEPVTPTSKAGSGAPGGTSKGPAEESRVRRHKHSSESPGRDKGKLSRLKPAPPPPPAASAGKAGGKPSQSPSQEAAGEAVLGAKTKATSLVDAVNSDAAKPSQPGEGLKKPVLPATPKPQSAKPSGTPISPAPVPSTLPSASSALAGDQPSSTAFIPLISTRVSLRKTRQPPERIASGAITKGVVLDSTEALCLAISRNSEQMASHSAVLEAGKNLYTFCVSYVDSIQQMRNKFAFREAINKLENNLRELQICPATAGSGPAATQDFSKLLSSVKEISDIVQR

With FAKLAARLYRKALARQLGVAA [MMI-0300] the “Abl(h) % activity” value [1] was 69%, the “MSSK1(h) % activity” value [2] was 77% and the “MST2(h) % activity” value [3] was 19%. For the same sequence, the “NEK11(h) % activity” value [4] was 53%, the “NEK2(h) % activity” value [5] was 78% and the “PKD2(h) % activity” value [6] was 33%.

With “HRRIKAWLKKIKALARQLGVAA (Mammalian) [MMI-0500]” the “Abl(h) % activity” value [1] was 16%, the “MSSK1(h) % activity” value [2] was 22% and the “MST2(h) % activity” value [3] was 2%. For the same sequence, the “NEK11(h) % activity” value [4] was 2%, the “NEK2(h) % activity” value [5] was 0% and the “PKD2(h) % activity” value [6] was 10%.

In the case of KAFAKLAARLYRKALARQLGVAA [MMI-0400], the “Abl(h) % activity” value [1] is reported as 84%, the “MSSK1(h) % activity” value [2] is reported as 75% and the “MST2(h) % activity” value [3] is reported as 11%. The “NEK11(h) % activity” value [4] was 33%, the “NEK2(h) % activity” value [5] was 61% and the “PKD2(h) % activity” value [6] was 25%.

“YARAAARQARAKALNRQLGVA (Mammalian) [MMI-0200]” was tested, and the “MSSK1(h) % activity” value [2] was 100%, the “NEK11(h) % activity” value [4] was 95% and the “NEK2(h) % activity” value [5] was 97%. The “PKD2(h) % activity” value [6] was 78%.
